Data as given in doi:10.1101/2021.01.14.426755 (bioRxiv, 2021).

Target: T1, Tfb2 (yeast (endogenous, purified from yeast), UniProt Q02939 1-513)
T1 sequence: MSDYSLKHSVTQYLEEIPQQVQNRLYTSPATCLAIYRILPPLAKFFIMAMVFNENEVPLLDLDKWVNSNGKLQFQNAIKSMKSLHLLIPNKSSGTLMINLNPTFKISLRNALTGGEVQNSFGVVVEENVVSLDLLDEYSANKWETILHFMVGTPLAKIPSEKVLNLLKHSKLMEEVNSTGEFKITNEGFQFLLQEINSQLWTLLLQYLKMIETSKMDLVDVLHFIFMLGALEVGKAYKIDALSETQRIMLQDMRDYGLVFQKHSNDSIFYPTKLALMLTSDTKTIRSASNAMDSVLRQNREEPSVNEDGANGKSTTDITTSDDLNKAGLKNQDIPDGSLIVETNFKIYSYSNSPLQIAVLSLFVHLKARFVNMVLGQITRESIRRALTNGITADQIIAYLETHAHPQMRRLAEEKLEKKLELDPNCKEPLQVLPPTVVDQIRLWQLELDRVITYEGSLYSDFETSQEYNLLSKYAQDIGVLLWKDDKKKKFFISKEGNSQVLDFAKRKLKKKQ
Test: cryo-EM structure

B1: Tfb5 (natural protein)
chain: MARARKGALVQCDPSIKALILQIDAKMSDIVLEELDDTHLLVNPSKVEFVKHELNRLLSKNIYNPMDEEENQ
  binding result: binds
